# B1: VapC toxin from Leptospira interrogans serovar Copenhageni (LIC12660), 6xHis-tagged, refolded by hig (enzyme)
# chain: MYLLDTNICIFLIKKKNATLLENLKKKLNKDLFVSSLTVAELEFGIQKSEFKEKNKVALIEFLTIFNILSFSDKDAESYGIIRADLERKGNVIGSIDMLLAAQAIANNYIFVTNNTKEFKRIKALKIENWTQ
# notes: also called pressurized VapC
# B2: VapC toxin from Leptospira interrogans serovar Copenhageni (LIC12660), non-tagged, co-expressed with VapB (enzyme)
# chain: MYLLDTNICIFLIKKKNATLLENLKKKLNKDLFVSSLTVAELEFGIQKSEFKEKNKVALIEFLTIFNILSFSDKDAESYGIIRADLERKGNVIGSIDMLLAAQAIANNYIFVTNNTKEFKRIKALKIENWTQ
# notes: Translated from the bicistronic mRNA under a single promoter; also called non-tagged VapC
# Molecular target: the molecule itself
# Experiment: non-reducing SDS-PAGE
row,Protein,stoichiometry N
1,B1,2
2,B2,2

# Source: PMC4105405, “VapC from the Leptospiral VapBC Toxin-Antitoxin Module Displays Ribonuclease Activity on the Initiator tRNA” (PLoS ONE, 2014)
